{
  "source": "paper PMC9295563",
  "about": "“A Reduced F420-Dependent Nitrite Reductase in an Anaerobic Methanotrophic Archaeon” (Journal of Bacteriology, 2022)",
  "key": {"ANME2c-FsrII-6D [1]": {"target": "T1, ANME2c-FsrII-6D (uncultured archaeon, UniProt Z9BHN8L6W9)", "T1 sequence (Z9BHN8L6W9 1-642)": "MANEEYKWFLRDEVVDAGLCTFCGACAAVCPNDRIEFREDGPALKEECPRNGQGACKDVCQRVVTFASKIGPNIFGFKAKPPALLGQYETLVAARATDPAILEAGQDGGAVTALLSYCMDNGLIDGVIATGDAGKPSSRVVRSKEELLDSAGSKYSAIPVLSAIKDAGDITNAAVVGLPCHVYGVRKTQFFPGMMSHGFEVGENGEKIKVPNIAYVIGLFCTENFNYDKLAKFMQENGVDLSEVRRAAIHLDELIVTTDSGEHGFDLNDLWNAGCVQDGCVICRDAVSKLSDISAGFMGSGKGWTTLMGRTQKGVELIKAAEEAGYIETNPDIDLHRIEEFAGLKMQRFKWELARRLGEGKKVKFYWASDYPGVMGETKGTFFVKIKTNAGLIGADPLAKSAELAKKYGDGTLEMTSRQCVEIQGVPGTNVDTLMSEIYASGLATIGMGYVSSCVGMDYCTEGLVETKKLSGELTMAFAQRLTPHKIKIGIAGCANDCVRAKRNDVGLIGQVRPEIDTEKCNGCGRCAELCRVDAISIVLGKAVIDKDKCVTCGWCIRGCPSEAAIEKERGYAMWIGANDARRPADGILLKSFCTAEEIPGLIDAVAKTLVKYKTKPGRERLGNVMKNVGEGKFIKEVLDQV", "experiment": "inhibition of F420H2-dependent nitrite reduction, F420H2 oxidation at […] nm", "assay_type": "biochemical, uncultured ANME-2c archaeon", "set-up": "gene fsr; full-length two-domain protein (Fsr-N 1-341, Fsr-C 356-642); expressed from pDS701 in Methanosarcina acetivorans WWM60; F420-Sepharose purified, no tag mentioned; siroheme, FAD, about four [Fe4-S4] per subunit", "settings": "read-out: apparent Ki"}, "O=S(O)O": {"system": "T2, O=S(O)O", "T2 construct": "full-length two-domain protein (Fsr-N 1-341, Fsr-C 356-642); expressed from pDS701 in Methanosarcina acetivorans WWM60; F420-Sepharose purified, no tag mentioned; siroheme, FAD, about four [Fe4-S4] per subunit", "experiment": "purified protein", "assay_type": "biochemical, uncultured ANME-2c archaeon", "settings": "408 μM reduced methyl viologen, 10-500 μM sulfite, with DTT, pH 7 phosphate, anaerobic, kcat in electrons transferred per subunit"}, "[2]": {"system": "CN1C=C[C](c2cc[n+](C)cc2)C=C1", "experiment": "purified protein", "assay_type": "biochemical, uncultured ANME-2c archaeon", "settings": "pH 7.0"}, "O=NO": {"system": "O=NO", "experiment": "purified protein", "settings": "40 μM F420H2, 2-100 μM nitrite, 0.5 mM DTT, pH 7 phosphate, anaerobic, kcat in electrons transferred per subunit"}, "ANME2c-FsrII-6D [3]": {"target": "T1, ANME2c-FsrII-6D", "experiment": "F420H2 oxidation at […] nm", "set-up": "gene fsr", "settings": "read-out: Km (μM) for the varied substrate; 500 μM nitrite, 1-80 μM F420H2, 0.5 mM DTT, pH 7 phosphate, anaerobic; kcat in electrons transferred per subunit"}},
  "data": [
    {"molecule": "O=S(O)O", "note": "[sulfite]", "values": [
      {"measurement": "Ki", "setting": "ANME2c-FsrII-6D [1]", "value": "130 ± 86", "unit": "µM"}
    ]},
    {"molecule": "ANME2c-FsrII-6D (uncultured archaeon)", "values": [
      {"measurement": "Km", "setting": "O=S(O)O", "value": "129 ± 20", "unit": "µM"},
      {"measurement": "kcat", "setting": "O=S(O)O", "value": "1.07 ± 0.0667", "unit": "s⁻¹"},
      {"measurement": "kcat/Km", "setting": "O=S(O)O", "value": "0.5 ± 0.1 (HSO3^−)"},
      {"measurement": "Km", "setting": "[2]", "value": "137 ± 26", "unit": "µM"},
      {"measurement": "kcat/Km", "setting": "[2]", "value": "0.5 ± 0.1 (MV^·+)"},
      {"measurement": "Km", "setting": "O=NO", "value": "5 ± 1", "unit": "µM"},
      {"measurement": "kcat", "setting": "O=NO", "value": "0.3 ± 0.0167", "unit": "s⁻¹"},
      {"measurement": "kcat/Km", "setting": "O=NO", "value": "4 ± 1 (NO2^−)"}
    ]},
    {"molecule": "F420H2", "values": [
      {"measurement": "Km", "setting": "ANME2c-FsrII-6D [3]", "value": "14 ± 2", "unit": "µM"}
    ]}
  ]
}
